Target: p53pΔF19
Experiment: ITC

Kd: 20.1 µM
B1: p53-binding domain of human MdmX (N-MdmX, amino acids 22-110) (domain or fragment)
chain: GQINQVRPKLPLLKILHAAGAQGEMFTVKEVMHYLGQYIMVKQLYDQQEQHMVYCGGDLLGELLGRQSFSVKDPSPLYDMLRKNLVTLA

Reference: article PMC8885691 (2022)
